Data taken from paper PMC7925690, “A molecular switch in sulfur metabolism to reduce arsenic and enrich selenium in rice grain” (Nature Communications, 2021).
One block for each molecule: values may come before it.

Assays:
[1] = target: mature OsASTOL1^S189N protein (untagged) (rice (Oryza sativa cv. Kasalath)) (UniProt Q9XEA6); experiment: SEC; HiLoad 16/60 Superdex 200 prep grade, 20 mM Tris-HCl, 150 mM NaCl, pH 7.5, 1 ml/min; 1 mg protein in 1 ml injected; molecular weight from a calibration curve
[2] = target: mature OsASTOL1 protein (untagged) (rice (Oryza sativa cv. Kasalath)) (UniProt Q9XEA6); experiment: as above
[3] = target: T1, OsASTOL1 (Oryza sativa, UniProt Q9XEA6); experiment: microscale thermophoresis, RED-tris-NTA labelled His-tagged protein; type: binding
T1 construct: gene RCS1; mature form, N-terminal 87 residues (first 261 bp) deleted; C-terminal His tag (pET-29a NdeI/XhoI); E. coli BL21(DE3); Ni-NTA; dimer by SEC
T1 sequence (Q9XEA6 whole entry): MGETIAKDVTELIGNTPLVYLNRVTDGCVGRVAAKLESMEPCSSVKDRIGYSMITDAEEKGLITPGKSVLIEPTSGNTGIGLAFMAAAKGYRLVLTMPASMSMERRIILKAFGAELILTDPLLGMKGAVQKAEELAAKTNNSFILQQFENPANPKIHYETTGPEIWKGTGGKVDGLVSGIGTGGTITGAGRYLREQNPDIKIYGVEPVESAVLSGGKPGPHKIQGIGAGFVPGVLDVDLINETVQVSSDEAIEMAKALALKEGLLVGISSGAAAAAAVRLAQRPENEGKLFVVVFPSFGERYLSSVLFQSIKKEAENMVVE

[4] = target: T2, AtOAS-TL A (Arabidopsis thaliana, UniProt P47998); experiment: as above; type: binding
T2 construct: gene OASA1; full-length ORF, C-terminal His tag (pET-29a NdeI/XhoI); E. coli BL21(DE3); Ni-NTA
T2 sequence (P47998 whole entry): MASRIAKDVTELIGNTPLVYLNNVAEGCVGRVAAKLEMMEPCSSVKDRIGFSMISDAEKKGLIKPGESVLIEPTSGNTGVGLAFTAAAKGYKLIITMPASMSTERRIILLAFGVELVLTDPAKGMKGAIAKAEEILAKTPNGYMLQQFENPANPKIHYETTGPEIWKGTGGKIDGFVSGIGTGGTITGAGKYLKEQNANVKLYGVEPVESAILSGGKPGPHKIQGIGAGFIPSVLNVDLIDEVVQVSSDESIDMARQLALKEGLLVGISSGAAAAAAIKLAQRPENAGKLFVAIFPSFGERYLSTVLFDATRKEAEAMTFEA

[5] = target: T3, AtOAS-TL A-His (Arabidopsis thaliana, UniProt P47998 1-322, labeled with RED-tris-NTA 2nd Generation Dye); experiment: MST; His-tagged OAS-TL labeled with RED-tris-NTA 2nd Generation Dye (100 µM as printed) with a serial dilution of the AtSAT5C10 peptide; PBS pH 7.6, 0.05% Tween 20; Monolith NT.115; settings: both partners purified
T3 construct: Arabidopsis thaliana cytosolic O-acetylserine(thiol)lyase A; ORF without the stop codon; Cloned into the NdeI/XhoI sites of pET-29a; also called His-tagged AtOAS-TL A; source: E. coli BL21 (DE3), purified (Ni-NTA); not shown: His, C-terminal, kept
T3 sequence (P47998 whole entry): as above

[6] = target: T4, AtOAS-TL A^S102N-His (Arabidopsis thaliana, UniProt P47998 1-322, S102N, labeled with RED-tris-NTA 2nd Generation Dye); experiment: as above; settings: both partners purified
T4 construct: Arabidopsis thaliana cytosolic O-acetylserine(thiol)lyase A, site-directed mutant; ORF without the stop codon; Cloned into the NdeI/XhoI sites of pET-29a; also called His-tagged AtOAS-TL A^S102N; source: E. coli BL21 (DE3), purified (Ni-NTA); not shown: His, C-terminal, kept
T4 sequence (P47998 whole entry S102N): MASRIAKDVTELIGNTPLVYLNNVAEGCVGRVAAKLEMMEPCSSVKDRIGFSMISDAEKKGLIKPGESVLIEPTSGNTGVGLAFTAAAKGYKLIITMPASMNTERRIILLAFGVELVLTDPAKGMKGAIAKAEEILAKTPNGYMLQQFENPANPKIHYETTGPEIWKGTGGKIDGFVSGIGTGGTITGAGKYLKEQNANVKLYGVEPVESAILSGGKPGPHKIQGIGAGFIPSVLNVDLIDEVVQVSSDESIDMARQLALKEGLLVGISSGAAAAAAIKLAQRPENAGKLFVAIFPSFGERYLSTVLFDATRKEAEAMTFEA

Molecule: CC(=O)OC[C@H](N)C(=O)O [OAS]
Kd [3]: 1.47 ± 2.42 nM
Kd [4]: 13.1 ± 4.83 nM

B1: AtSAT5C10 peptide (peptide)
peptide: FISEWSDYII
notes: Ten C-terminal residues of Arabidopsis thaliana serine acetyltransferase 5 (AtSAT5), AT5G56760; also called C-terminal fragment of SAT5; AtSAT5C10 fragment; source: synthetic peptide (GenScript Biotech, Nanjing)
binding result [5]: binds
binding result [6]: binds

Second part, the molecule after the results:

stoichiometry N [1]: 2
Molecule: mature OsASTOL1^S189N protein (untagged) (from UniProt Q9XEA6 88-321) (enzyme)

stoichiometry N [2]: 2
Molecule: mature OsASTOL1 protein (untagged) (from UniProt Q9XEA6 88-321) (enzyme)
